{"source": "patent US20250051456A1", "about": "(Hoffmann-La Roche, published 2025)", "binders": {"B1": {"name": "HLA-G-0090 (antibody, V domains shown)", "VH": "QVQLQQSGPGLLKPSQTLSLTCAISGDSVSSNRAAWNWIRQSPSRGLEWLGRTYYRSKWYNDYAVSVQGRITLIPDTSKNQFSLRLNSVTPEDTAVYYCASVRAVAPFDYWGQGVLVTVSS", "VL": "not shown"}, "B2": {"name": "HLA-G-0031 (antibody, V domains shown)", "VH": "QVKLMQSGAALVKPGTSVKMSCNASGYTFTDYWVSWVKQSHGKRLEWVGEISPNSGASNFDENFKDKATLTVDKSTSTAYMELSRLTSEDSAIYYCTRSSHGSFRWFAYWGQGTLVTVSS", "VL": "AIVLNQSPSSIVASQGEKVTITCRASSSVSSNHLHWYQQKPGAFPKFVIYSTSQRASGIPSRFSGSGSGTSYSFTISRVEAEDVATYYCQQGSSNPYTFGAGTKLELK"}, "B3": {"name": "HLA-G-0041 (antibody, V domains shown)", "VH": "EVQLLESGGGLVQPGGSLRLSCAASGFTFSTYGMSWVRQAPGKGLEWVSVISGGGVSTYYADSVKGRFTISRDNSKNTLYLQMNRLRAEDTAVYYCAKDGSYNYGYGDYFDYWGQGTLVTVSS", "VL": "not shown"}}, "key": {"[1]": {"molecular_target": "human HLA-G expressed on cells (JEG3 naturally; Skov3 and PA-TU-8902 transfectants) (human)", "assay": "cell-based or functional assay"}, "[2]": {"molecular_target": "T1, monomeric human HLA-G β2M MHC class I complex (soluble recombinant wt HLA-G) (human)", "T1 construct": "also called HLA-G-0003; wt HLA-G (monomer)", "assay": "ELISA, biotinylated wt HLA-G monomer on streptavidin plate; the 6th table ELISA series (monomer, dimer, trimer), separate from the 7th table", "experimental": "The above table summarizes the binding of different rat anti-human HLA-G monoclonal antibodies, derived from wt protein IMS. Shown are the relative EC50 values [ng/ml] of the respective binding to rec. wt monomeric, dimeric and trimeric HLA-G proteins as assessed by ELISA. The ELISA was set up by coating the biotinylated wt HLA-G antigen to strepdavidin plates. After incubation and washing steps, the respective antibodies were bound in a concentration range from […] in 1:2 dilution steps. Detection of bound antibodies was carried out by anti-Fc-antibody-POD conjugates. EC50 values were determined from the resulting binding curves at the antibody concentrations generating the half-maximal signal. In case of the non-biotinylated HLA-G dimer and trimer antigens, immobilization was carried out by random coating on assay plates."}}, "data": [{"binder": "B1", "values": [{"measurement": "% TNF release (restoration), different donor, JEG-3 wt co-culture; antibody 0.16 µg/ml", "setting": "[1]", "result": 198, "unit": "%"}, {"measurement": "% TNF release (restoration), different donor, JEG-3 wt co-culture; antibody 0.63 µg/ml", "setting": "[1]", "result": 219, "unit": "%"}, {"measurement": "% TNF release (restoration), different donor, JEG-3 wt co-culture; antibody 2.5 µg/ml", "setting": "[1]", "result": 233, "unit": "%"}, {"measurement": "% TNF release (restoration), different donor, JEG-3 wt co-culture; antibody 10 µg/ml", "setting": "[1]", "result": 221, "unit": "%"}]}, {"binder": "B2", "values": [{"measurement": "% TNF release (restoration), different donor, JEG-3 wt co-culture; antibody 0.16 µg/ml", "setting": "[1]", "result": 14, "unit": "%"}, {"measurement": "% TNF release (restoration), different donor, JEG-3 wt co-culture; antibody 0.63 µg/ml", "setting": "[1]", "result": 44, "unit": "%"}, {"measurement": "% TNF release (restoration), different donor, JEG-3 wt co-culture; antibody 2.5 µg/ml", "setting": "[1]", "result": 67, "unit": "%"}, {"measurement": "% TNF release (restoration), different donor, JEG-3 wt co-culture; antibody 10 µg/ml", "setting": "[1]", "result": 74, "unit": "%"}]}, {"binder": "B3", "values": [{"measurement": "% TNF release (restoration), different donor, JEG-3 wt co-culture; antibody 0.16 µg/ml", "setting": "[1]", "result": 44, "unit": "%"}, {"measurement": "% TNF release (restoration), different donor, JEG-3 wt co-culture; antibody 0.63 µg/ml", "setting": "[1]", "result": 66, "unit": "%"}, {"measurement": "% TNF release (restoration), different donor, JEG-3 wt co-culture; antibody 2.5 µg/ml", "setting": "[1]", "result": 59, "unit": "%"}, {"measurement": "% TNF release (restoration), different donor, JEG-3 wt co-culture; antibody 10 µg/ml", "setting": "[1]", "result": 40, "unit": "%"}, {"measurement": "EC50", "setting": "[2]", "result": 4.95, "unit": "ng/mL"}]}]}
